Source: PMC3699631, “Posttranslational Modifications of the Histone 3 Tail and Their Impact on the Activity of Histone Lysine Demethylases In Vitro” (PLoS ONE, 2013)

Legend:
cc-KDM4A = assay: MALDI-TOF-MS demethylation, truncated KDM4A; type: biochemical, human
Protocol: (§1) The enzyme kinetics were measured using a Formaldehyde DeHydrogenase Assay (FDH-Assay) and the demethylation of substrates was confirmed when possible by MALDI-TOF-MS, see File S1 for details. The test solution contained 50 mM HEPES (pH 7.5), 50 mM NaCl, 50 µM FeSO4, 500 µM α-KG, 500 µM ascorbate, 2 mM NAD, approximately 0.05 unit of FDH and e.g. 4.88 µM KDM4C (enzyme concentration varied between batches). The reference solution was comprised of the same except substrate. The assay was initiated by adding various concentrations of H3 peptide substrates e.g. H3(1–24)K9me3 (10–1000 µM) and the increase in NADH fluorescence was measured over 15–30 minutes in 30 second intervals. Data analysis and kinetic values were obtained using programs Excel and GraphPad Prism® 5.0. For details, see File S1.
(§2) The reaction mixture was diluted 1: 9 with a saturated solution of α-cyano-4-hydroxycinnamic acid (Aldrich) in a mixture of 65 % acetonitrile and 35 % MilliQ water containing 0.1 % TFA. 1 µl of the sample was spotted onto the target and air dried. The MALDI-TOF MS was carried out on an Ultraflex TOF/TOF (Bruker) operated in positive ion mode with an Ion source voltage of 25 kV, a lens voltage of 7.5 kV and a reflector voltage of 26.3 kV. The system was run in deflection mode with a mass suppression of 500 Da. […]

human cc-KDM4A = target: T1, human cc-KDM4A (Homo sapiens, UniProt O75164); assay: competition experiment H3(1–24)K9me3-T11(ph) with H3(1–24)K9me3, truncated KDM4A; type: biochemical
T1 construct: Truncated constructs of KDM4A and KDM4C containing only the catalytic cores (cc-KDM4A/cc-KDM4C); made in house
T1 sequence (O75164 1-350 limits assumed): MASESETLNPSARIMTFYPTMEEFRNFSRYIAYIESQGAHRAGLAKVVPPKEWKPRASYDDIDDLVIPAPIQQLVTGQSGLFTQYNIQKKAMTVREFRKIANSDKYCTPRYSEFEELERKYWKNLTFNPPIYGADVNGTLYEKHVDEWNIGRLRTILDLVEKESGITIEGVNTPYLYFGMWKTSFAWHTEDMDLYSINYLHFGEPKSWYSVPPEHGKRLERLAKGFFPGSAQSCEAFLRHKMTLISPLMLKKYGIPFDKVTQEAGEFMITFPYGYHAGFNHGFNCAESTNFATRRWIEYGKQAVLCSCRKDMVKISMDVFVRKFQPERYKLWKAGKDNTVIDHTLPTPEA
Protocol: (§3) To investigate if H3(1–24)K9me3-T11(ph) could bind to the enzyme and act as an inhibitor, a competition experiment with H3(1–24)K9me3 was carried out.
as §1

human cc-KDM4C = target: T2, human cc-KDM4C (Homo sapiens, UniProt Q9H3R0); assay: competition experiment H3(1–24)K9me3-T11(ph) with H3(1–24)K9me3, truncated KDM4C; type: biochemical
T2 construct: Truncated constructs of KDM4A and KDM4C containing only the catalytic cores (cc-KDM4A/cc-KDM4C); made in house
T2 sequence (Q9H3R0 1-349 limits assumed): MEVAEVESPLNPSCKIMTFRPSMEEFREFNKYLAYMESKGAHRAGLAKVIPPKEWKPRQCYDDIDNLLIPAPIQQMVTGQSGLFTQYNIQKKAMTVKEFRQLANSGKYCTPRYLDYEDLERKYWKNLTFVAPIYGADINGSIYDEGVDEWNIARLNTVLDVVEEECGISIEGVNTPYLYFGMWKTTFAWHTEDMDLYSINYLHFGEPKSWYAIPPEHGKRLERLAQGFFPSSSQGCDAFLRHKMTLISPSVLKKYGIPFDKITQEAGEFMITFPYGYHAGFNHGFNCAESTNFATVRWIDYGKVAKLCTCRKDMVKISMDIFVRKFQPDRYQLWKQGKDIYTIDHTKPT
Protocol: as §3, §1

cc-KDM4C = assay: MALDI-TOF-MS demethylation, truncated KDM4C; type: biochemical, human
Protocol: as §1, §2

[1] = cc-KDM4A, H3(1–24)K9me3T11(ph) then H3(1–24)K9me3*
[2] = cc-KDM4C, H3(1–24)K9me3T11(ph) then H3(1–24)K9me3*

| Substance | demethylation by MALDI-TOF-MS (in words) (cc-KDM4A) | competition / inhibition (in words) (human cc-KDM4A; competition with H3(1–24)K9me3, results not shown, enzyme not named, cc-KDM4A in Table 1) | competition / inhibition (in words) (human cc-KDM4C; competition with H3(1–24)K9me3, results not shown, enzyme not named, cc-KDM4C in Table 1) | demethylation by MALDI-TOF-MS (in words) (cc-KDM4C) | K m (human cc-KDM4A; [1]) | k cat (human cc-KDM4A; [1]) | k cat /K m (human cc-KDM4A; cc-KDM4A, H3(1–24)K9me3T11(ph) then H3(1–24)K9me3*, unit: (min^−1 * µM^−1) * 10^3) | K m (human cc-KDM4C; [2]) | k cat (human cc-KDM4C; [2]) |
| --- | --- | --- | --- | --- | --- | --- | --- | --- | --- |
| H3(1–24)K9me3T11(ph): H3(1–24)K9me3 with phosphorylation of threonine 11 | no detectable turnover | does not act as an inhibitor | does not act as an inhibitor | no detectable turnover |  |  |  |  |  |
| H3(1–24)K9me3: truncated histone tail, 24 first amino acids from the N-terminus of H3, trimethylated lysine 9; control peptide |  |  |  |  | 132±23 | 1.4±0.08 | 10.6±1.9 | 43±22 | 0.3±0.05 |
| H3(1–24)K4me3K9me3: bis-tri-methylated substrate, trimethylated K4 in combination with H3K9me3 | PTM product between mark K4me3 and mark K9me3 |  |  | PTM product between mark K4me3 and mark K9me3 |  |  |  |  |  |
